Experimental data reported in article PMC2213524 (The Journal of Experimental Medicine, 2000).

Target: Histidine-tagged rat N-WASP (rat, UniProt O08816 1-501)
Test: pull-down

Sequence of Histidine-tagged rat N-WASP (O08816 whole entry): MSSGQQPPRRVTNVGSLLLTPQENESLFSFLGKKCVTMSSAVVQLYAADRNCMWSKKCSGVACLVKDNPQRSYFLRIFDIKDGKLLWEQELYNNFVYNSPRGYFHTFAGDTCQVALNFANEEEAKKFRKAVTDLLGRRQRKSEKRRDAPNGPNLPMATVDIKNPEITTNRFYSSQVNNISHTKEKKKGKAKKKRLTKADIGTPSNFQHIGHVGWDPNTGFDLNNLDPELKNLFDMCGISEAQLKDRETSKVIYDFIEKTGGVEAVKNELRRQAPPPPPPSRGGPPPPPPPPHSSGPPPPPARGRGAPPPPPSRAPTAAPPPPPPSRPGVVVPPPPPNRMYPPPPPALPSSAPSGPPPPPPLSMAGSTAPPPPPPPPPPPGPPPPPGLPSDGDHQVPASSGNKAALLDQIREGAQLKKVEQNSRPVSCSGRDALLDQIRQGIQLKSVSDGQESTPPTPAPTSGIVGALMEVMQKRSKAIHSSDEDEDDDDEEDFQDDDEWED

fold change of coprecipitated amount with Cdc42-G12V (GTPγS) against without: 1.2 fold
B1: Recombinant VirG-α1 protein (Thr53–Arg759 of VirG polypeptide) (domain or fragment, S. flexneri, UniProt Q7BCK4 53-759, looked up)
chain: TPLSGTQELHFSEDNYEKLLTPVDGLSPLGAGEDGMDAWYITSSNPSHASRTKLRINSDIMISAGHGGAGDNNDGNSCGGNGGDSITGSDLSIINQGMILGGSGGSGADHNGDGGEAVTGDNLFIINGEIISGGHGGDSYSDSDGGNGGDAVTGVNLPIINKGTISGGNGGNNYGEGDGGNGGDAITGSSLSVINKGTFAGGNGGAAYGYGYDGYGGNAITGDNLSVINNGAILGGNGGHWGDAINGSNMTIANSGYIISGKEDDGTQNVAGNAIHITGGNNSLILHEGSVITGDVQVNNSSILKIINNDYTGTTPTIEGDLCAGDCTTVSLSGNKFTVSGDVSFGENSSLNLAGISSLEASGNMSFGNNVKVEAIINNWAQKDYKLLSADKGITGFSVSNISIINPLLTTGAIDYTKSYISDQNKLIYGLSWNDTDGDSHGEFNLKENAELTVSTILADNLSHHNINSWDGKSLTKSGEGTLILAEKNTYSGFTNINAGILKMGTVEAMTRTAGVIVNKGATLNFSGMNQTVNTLLNSGTVLINNINAPFLPDPVIVTGNMTLEKNGHVILNNSSSNVGQTYVQKGNWHGKGGILSLGAVLGNDNSKTDRLEIAGHASGITYVAVTNEGGSGDKTLEGVQIISTDSSDKNAFIQKGRIVAGSYDYRLKQGTVSGLNTNKWYLTSQMDNQESKQMSNQESTQMSSRR
